Test results published in the supplement of paper PMC9170038.

Tested on: MS2 coat protein
Assay: apparent KD of MS2 coat protein; designed switch direction (-1 OFF switch, 1 ON switch): -1; higher = weaker reporter binding
Summary of the method: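 Designed RNA switches with common flanks were made on Illumina chips by stalled E. coli RNA polymerase. Titration with SNAP-549-labelled MS2 coat protein doubled from 0.7 or 1.5 nM up to 3 µM. Apparent KD is each design's median over clusters after curve-fitting normalised fluorescence.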

[1] = Eterna round: R95, input ligand: microRNA oligo, concentration not stated
[2] = input ligand: microRNA oligo, concentration not stated

UCCUGACAUGAGGAUCACCCAUGUAAGGAUAUCAGCCACCCAGCAAAAGCUGGGCAAGUGAGAAGGUACACGGG [EX1 A.30] (Eterna round: R97, puzzle: Exclusion 1)
apparent KD of MS2 coat protein (input ligand: FMN 200 uM): 157 nM
apparent KD of MS2 coat protein (input ligand: none): 30.6 nM

UAUUAAGCAAGCAGAUCCCACAUGAGGAUCACCCAUGUGCUCGUCUUAUAAGGUACUGUGACGAGAGUCACGGUACC [Mat - Sensor, turn-off var - Eli Mod - D69] (Eterna round: R97, puzzle: Sensor, turn-off variant 1)
apparent KD of MS2 coat protein (input ligand: FMN 200 uM): 165 nM
apparent KD of MS2 coat protein (input ligand: none): 129 nM

UUCACAUGGACAUGAGAUCACAUGAGGAUCACCCAUGUGAAUAACAAGCUUUUUGUUCGUCUUAUGUCCAAUAAUAU [Stov1/14-D2] (Eterna round: R97, puzzle: Sensor, turn-off variant 1)
apparent KD of MS2 coat protein (input ligand: FMN 200 uM): 13.7 nM
apparent KD of MS2 coat protein (input ligand: none): 10.5 nM

AAGUGCAAAGGAUAUACGUGACUUACUCCAAUUGCUACCCGACAUGAGGAUCACCCAUGUAGAAGGUUGCGCAC [Eternabot (Original) Solution 20] (Eterna round: R97, puzzle: Exclusion 2)
apparent KD of MS2 coat protein (input ligand: FMN 200 uM): 34.3 nM
apparent KD of MS2 coat protein (input ligand: none): 16.6 nM

AUACCAUGCCGCCUAAUAGCUUUUUGCCCGUCUUAUAAAACAUGAGGAUCACCCAUGUAAAACUCGUGGCGUGACCC [Quarre] (puzzle: Sensor v3, turn-off variant 2)
apparent KD of MS2 coat protein (Eterna round: R95, input ligand: FMN 200 uM): 156 nM
apparent KD of MS2 coat protein [1]: 21.9 nM
apparent KD of MS2 coat protein (Eterna round: R95, input ligand: none): 195 nM

AAUUCACAUGAGGAUCACCCAUGUCAGGAUAUGGUUUCACGGGUUUCGGUGCGUGAGGCCAGAAGGGACAGCUA (puzzle: Exclusion 1)
apparent KD of MS2 coat protein [1]: 51.5 nM

GGCCCACAUGAGGAUCACCCAUGUGAGGAUAUGUUAGUUUCGGCGAAAGCCGAAAUUAACAGAAGGCACAGGCC [JR_Exclusion1_Sub022] (puzzle: Exclusion 1)
apparent KD of MS2 coat protein [1]: 10.8 nM

UAGAUGGCUCAGGAUAUUUGCCAACUAACUCGCGAAGAAGGGAGCACAUGAGGAUCACCCAUGUGAUCGAACGG [Rila] (puzzle: Exclusion 6)
apparent KD of MS2 coat protein [1]: 16.3 nM

CUAGCGAAUGUAGGAUAUCGGACUGUUUCAGUCUGAGAAGGACAUGAGGAUCACCCAUGUAUUGCUACGUGAGUAGCUCGCUAG [JL ENG1 3.92] (Eterna round: R96, puzzle: Exclusion NG 1)
apparent KD of MS2 coat protein (input ligand: FMN 200 uM): 32.4 nM
apparent KD of MS2 coat protein [2]: 13.7 nM
apparent KD of MS2 coat protein (input ligand: none): 18 nM

UACCUCACUUCUUUGACUCACAUGAGGAUCACCCAUGUAAUAUAGGAUAUGCAUUUUAUUUCUUUGCAGAAGGAUAUUAGUUUU [JR_ExcNG3_Sub089] (Eterna round: R96, puzzle: Exclusion NG 3)
apparent KD of MS2 coat protein [2]: 31.3 nM

AGGUCCUUCUGGAGACAUGAGGAUCACCCAUGUCGGGUCAGCGAGGAUAUCGGUCAAUAAUGUGACGAGAAGGCGCGGACCGAU [Ex NG3 #57] (Eterna round: R96, puzzle: Exclusion NG 3)
apparent KD of MS2 coat protein (input ligand: FMN 200 uM): 55.5 nM
apparent KD of MS2 coat protein [2]: 17.1 nM
apparent KD of MS2 coat protein (input ligand: none): 19.9 nM

ACAUGAGGAUCACCCAUGUGAAAGAAAUGGCUGACUUUGAGCUAGGAUAUUUGUGCAUAUCAAACGAAGAAGGAGCAUUACUGG [Deportation 100 - Jieux - Exclusion NG 3] (Eterna round: R96, puzzle: Exclusion NG 3)
apparent KD of MS2 coat protein [2]: 16.4 nM

CCUCCACAUGAGGAUCACCCAUGUCAGGAUAUCGUGUGUUUUUUUUCGGUCUUUCGUGCGAGAAGGGACGUCUG (puzzle: Exclusion 1)
apparent KD of MS2 coat protein [1]: 28.1 nM

UCGGCGCGAGGAUAUGCGGUUUGUGCUUUGGGCCCUGGCGUACAUGAGGAUCACCCAUGUAGAAGGCGCGCCGC [Apr-15 SS2-47] (puzzle: Exclusion 2)
apparent KD of MS2 coat protein [1]: 15.9 nM
